Data taken from patent publication US20250136910A1, “DEVICES FOR USE AS BLOOD BRAIN BARRIER MODELS” (Merck Sharp & Dohme LLC, priority 2023, published 2025).

Assays:
GFP HUVECs = assay: Ang-1 addition to perfusion media, channels endothelialized with GFP HUVECs; format: cell-based, human; settings: complete Vasculife (with VEGF) 3 days, then Ang-1 added 15 ng mL^−1; perfused at 5 μL min^−1
Experimental: FIGS. 25a-25c show immunostained VE-Cadherin junctions for channels endothelialized with GFP HUVECs (30M mL^−1) after being exposed to different media compositions. […] This gel was sustained for a total of twelve days while being perfused at 5 μL min^−1.
For the HUVECs, a mature monolayer was able to be obtained through modulation of the media composition and utilizing biomolecules that play an important role in endothelial cell function. In addition to the removal of VEGF, another avenue explored was the addition of Angiopoetin-1 (Ang-1). Angiopoetin-1 is a glycoprotein that is a known ligand for the endothelial cell-specific receptor tyrosine kinase, Tie-2 receptor. In vascular development during embryogenesis, VEGF and Ang-1 play essential and complementary roles. Vascular endothelial growth factor (VEGF) is responsible for the initial formation of the vascular plexus, while Angiopoetin-1 (Ang-1) is responsible for the subsequent remodeling of the vasculature into a network of mature vessels. […] The incorporation of this glycoprotein was first assessed using hydrogels endothelialized with GFP HUVECs. Three different media strategies were employed to assess the effect of adding Ang-1 to the perfusion media. […]

GFP HBMECs = assay: Ang-1 addition to perfusion media, serpentine gel endothelialized with GFP HBMECs; format: cell-based, human; settings: complete Vasculife 3 days, then Ang-1 at 15 ng/ml for 3 days; perfused at 5 μL min^−1; day 6
Experimental: GFP HBMECs was seeded in the vascular channel at 30M mL^−1and perfused at 5 μL min^−1for duration of the study. […] Overlay and individual channels of GFP HBMEC and VE-Cadherin shown.
Once this was confirmed using HUVECs, the incorporation of Ang-1 to the perfusion media was tested on a gel endothelialized with GFP HBMECs. The same strategy was employed where the gel was perfused for 3 days with complete Vasculife media, then switched to a Vasculife media where Ang-1 was added in at 15 ng/ml for the remaining three days of perfusion culture. Images of cell morphology in the serpentine on days 3, 6, and after fixing and immunostaining for VE-Cadherin are seen in FIG. 26a. […] A magnified portion of the center channel is shown in FIG. 26b, which highlights the morphology of the GFP HBMECs and VE-Cadherin and includes nuclei in the overlay.

B1: Ang-1: glycoprotein that is a known ligand for the endothelial cell-specific receptor tyrosine kinase, Tie-2 receptor (protein, UniProt Q15389 16-498, looked up)
Angiopoietin-1: HIGCSNQRRSPENSGRRYNRIQHGQCAYTFILPEHDGNCRESTTDQYNTNALQRDAPHVEPDFSSQKLQHLEHVMENYTQWLQKLENYIVENMKSEMAQIQQNAVQNHTATMLEIGTSLLSQTAEQTRKLTDVETQVLNQTSRLEIQLLENSLSTYKLEKQLLQQTNEILKIHEKNSLLEHKILEMEGKHKEELDTLKEEKENLQGLVTRQTYIIQELEKQLNRATTNNSVLQKQQLELMDTVHNLVNLCTKEGVLLKGGKREEEKPFRDCADVYQAGFNKSGIYTIYINNMPEPKKVFCNMDVNGGGWTVIQHREDGSLDFQRGWKEYKMGFGNPSGEYWLGNEFIFAITSQRQYMLRIELMDWEGNRAYSQYDRFHIGNEKQNYRLYLKGHTGTAGKQSSLILHGADFSTKDADNDNCMCKCALMLTGGWWFDACGPSNLNGMFYTAGQNHGKLNGIKWHYFKGPSYSLRSTTMMIRPLDF
For B1, the “endothelial monolayer retention in perfusion culture” value (GFP HUVECs) was “retained an endothelial monolayer for twelve days of perfusion culture” and the “endothelium confluence by VE-Cadherin immunostaining” value (GFP HBMECs) was “a confluent endothelium of brain microvascular endothelial cells lining the serpentine channel has been achieved”.
